Results from patent US20250376534A1 (ORNA THERAPEUTICS, published 2025).
Where no end group is shown, it is not given here.

Assays:
[1] = molecular target: T1, BCMA CAR encoded by circular RNA formed from DNA Template H; test: flow cytometry, live T cells 24 h after electroporation with 50 ng circRNA per 0.1x10^6 T cells; first of two values
T1 construct: also called Construct H
From the text: (§1) Donor T cells were thawed and activated with anti-CD3/CD28 solutions. Three days after activation, the cells were washed. […] Circular RNAs were formed from DNA templates present in Table 28 and/or 30. The cells were given a commercially available soluble BCMA detection reagent containing R-phycoerythrin (PE) fluorophore (e.g., from AcroBiosystems, Delaware), anti-Whitlow PE detection reagent, or anti-G4S linker detection reagent (e.g., G4S-AF647).

[2] = molecular target: T2, BCMA CAR encoded by circular RNA formed from DNA Template I; test: as above
T2 construct: also called Construct I
From the text: as §1

[3] = molecular target: T3, BCMA-41BBζ CAR encoded by circular RNA formed from DNA Template A; test: as above
T3 construct: also called Construct A
From the text: as §1

[4] = molecular target: T4, CD19-CD28ζ CAR encoded by circular RNA formed from DNA Template F; test: as above
T4 construct: also called Construct F
From the text: as §1

[5] = molecular target: T5, BCMA CAR encoded by circular RNA formed from DNA Template J; test: as above
T5 construct: also called Construct J
From the text: as §1

[6] = molecular target: T6, BCMA CAR encoded by circular RNA formed from DNA Template G; test: as above
T6 construct: also called Construct G
From the text: as §1

[7] = molecular target: T1, BCMA CAR encoded by circular RNA formed …; test: flow cytometry, live T cells 24 h after electroporation with 50 ng circRNA per 0.1x10^6 T cells; second of two values
From the text: as §1

[8] = molecular target: T2, BCMA CAR encoded by circular RNA formed …; test: as above
From the text: as §1

[9] = molecular target: T3, BCMA-41BBζ CAR encoded by circular RNA …; test: as above
From the text: as §1

[10] = molecular target: T4, CD19-CD28ζ CAR encoded by circular RNA …; test: as above
From the text: as §1

[11] = molecular target: T5, BCMA CAR encoded by circular RNA formed …; test: as above
From the text: as §1

[12] = molecular target: T6, BCMA CAR encoded by circular RNA formed …; test: as above
From the text: as §1

T3 sequence (chain, as listed by the source): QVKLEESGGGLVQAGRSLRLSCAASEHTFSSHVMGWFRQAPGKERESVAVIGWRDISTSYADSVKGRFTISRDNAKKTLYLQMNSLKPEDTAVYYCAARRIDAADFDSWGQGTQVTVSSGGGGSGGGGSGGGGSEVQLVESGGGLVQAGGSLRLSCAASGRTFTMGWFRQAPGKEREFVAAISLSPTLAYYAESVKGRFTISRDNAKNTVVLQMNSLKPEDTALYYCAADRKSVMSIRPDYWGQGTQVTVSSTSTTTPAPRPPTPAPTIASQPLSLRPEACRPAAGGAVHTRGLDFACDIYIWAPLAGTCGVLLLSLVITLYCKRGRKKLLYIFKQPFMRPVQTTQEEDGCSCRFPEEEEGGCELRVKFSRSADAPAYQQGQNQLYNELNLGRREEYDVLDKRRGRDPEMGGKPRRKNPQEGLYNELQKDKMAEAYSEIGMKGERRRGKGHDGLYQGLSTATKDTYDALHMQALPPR
T4 sequence (chain, as listed by the source limits assumed): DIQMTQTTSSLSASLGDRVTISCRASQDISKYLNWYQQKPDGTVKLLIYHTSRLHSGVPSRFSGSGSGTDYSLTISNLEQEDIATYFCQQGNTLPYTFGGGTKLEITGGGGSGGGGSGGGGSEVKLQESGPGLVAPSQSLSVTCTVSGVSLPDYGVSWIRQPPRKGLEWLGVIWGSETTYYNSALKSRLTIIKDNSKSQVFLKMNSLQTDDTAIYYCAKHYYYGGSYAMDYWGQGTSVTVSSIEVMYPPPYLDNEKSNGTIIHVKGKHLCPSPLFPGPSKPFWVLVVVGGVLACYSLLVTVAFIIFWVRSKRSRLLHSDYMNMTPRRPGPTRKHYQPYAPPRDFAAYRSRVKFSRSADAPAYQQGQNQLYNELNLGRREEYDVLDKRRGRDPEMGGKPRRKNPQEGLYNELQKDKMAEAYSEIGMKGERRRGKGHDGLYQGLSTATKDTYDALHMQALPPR
T1 sequence (chain, as listed by the source limits assumed): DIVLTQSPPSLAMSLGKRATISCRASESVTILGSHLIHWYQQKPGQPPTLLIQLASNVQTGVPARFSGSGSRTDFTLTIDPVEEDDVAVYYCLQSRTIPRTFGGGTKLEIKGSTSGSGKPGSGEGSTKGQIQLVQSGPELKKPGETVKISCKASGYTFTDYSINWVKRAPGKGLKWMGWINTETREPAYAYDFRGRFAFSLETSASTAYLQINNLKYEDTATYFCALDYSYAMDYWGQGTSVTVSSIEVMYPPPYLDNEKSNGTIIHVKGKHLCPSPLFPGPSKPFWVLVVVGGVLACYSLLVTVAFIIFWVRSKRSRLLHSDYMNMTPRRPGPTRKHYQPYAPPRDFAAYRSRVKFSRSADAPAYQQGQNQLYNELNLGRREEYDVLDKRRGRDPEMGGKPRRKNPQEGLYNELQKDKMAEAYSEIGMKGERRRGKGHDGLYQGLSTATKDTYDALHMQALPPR
T5 sequence (chain, as listed by the source limits assumed): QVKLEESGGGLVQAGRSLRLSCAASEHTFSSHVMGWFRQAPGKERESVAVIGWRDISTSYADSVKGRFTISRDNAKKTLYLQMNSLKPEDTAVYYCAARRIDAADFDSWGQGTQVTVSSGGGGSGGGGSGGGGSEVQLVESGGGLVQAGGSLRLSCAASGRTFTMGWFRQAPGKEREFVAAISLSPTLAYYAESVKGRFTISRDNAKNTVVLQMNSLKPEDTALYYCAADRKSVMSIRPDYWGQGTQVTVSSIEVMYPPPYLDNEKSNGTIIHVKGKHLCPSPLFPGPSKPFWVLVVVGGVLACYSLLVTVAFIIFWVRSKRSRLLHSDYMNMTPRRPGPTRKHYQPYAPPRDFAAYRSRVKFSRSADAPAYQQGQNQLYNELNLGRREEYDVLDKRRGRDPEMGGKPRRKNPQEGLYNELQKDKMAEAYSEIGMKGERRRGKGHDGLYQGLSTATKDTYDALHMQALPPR
T6 sequence (chain, as listed by the source limits assumed): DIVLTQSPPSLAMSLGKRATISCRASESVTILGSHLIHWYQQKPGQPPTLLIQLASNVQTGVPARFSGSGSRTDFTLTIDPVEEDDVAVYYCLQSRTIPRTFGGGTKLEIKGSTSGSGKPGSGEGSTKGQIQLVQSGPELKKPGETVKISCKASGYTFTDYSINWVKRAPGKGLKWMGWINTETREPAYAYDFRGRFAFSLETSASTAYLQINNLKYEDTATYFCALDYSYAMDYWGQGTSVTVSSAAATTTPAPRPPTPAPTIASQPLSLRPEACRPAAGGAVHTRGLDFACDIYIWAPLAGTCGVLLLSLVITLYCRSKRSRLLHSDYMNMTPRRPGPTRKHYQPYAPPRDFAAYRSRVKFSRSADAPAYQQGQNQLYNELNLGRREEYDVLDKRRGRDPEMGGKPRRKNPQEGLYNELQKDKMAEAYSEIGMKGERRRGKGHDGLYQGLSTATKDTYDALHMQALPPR
T2 sequence (chain, as listed by the source limits assumed): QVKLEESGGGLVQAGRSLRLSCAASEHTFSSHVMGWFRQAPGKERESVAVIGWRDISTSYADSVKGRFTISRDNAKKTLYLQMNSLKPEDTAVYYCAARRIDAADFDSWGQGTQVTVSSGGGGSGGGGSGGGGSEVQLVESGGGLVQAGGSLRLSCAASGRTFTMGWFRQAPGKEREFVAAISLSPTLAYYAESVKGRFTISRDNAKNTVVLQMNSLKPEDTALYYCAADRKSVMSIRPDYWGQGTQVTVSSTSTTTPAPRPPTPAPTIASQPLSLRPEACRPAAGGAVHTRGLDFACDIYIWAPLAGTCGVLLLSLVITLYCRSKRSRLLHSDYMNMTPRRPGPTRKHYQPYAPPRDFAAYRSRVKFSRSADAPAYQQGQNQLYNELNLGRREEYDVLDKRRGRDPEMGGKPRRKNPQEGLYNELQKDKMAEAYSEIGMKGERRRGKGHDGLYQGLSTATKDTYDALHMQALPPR

B1: soluble BCMA detection reagent containing R-phycoerythrin (PE) fluorophore (receptor, UniProt Q02223 1-54, looked up)
chain: MLQMAGQCSQNEYFDSLLHACIPCQLRCSSNTPPLTCQRYCNASVTNSVKGTNA
modifications: cysteine pairing not given here; also: conjugated to R-phycoerythrin (PE) fluorophore, site not given here
notes: also called soluble BCMA-PE; sBCMA-PE
- gMFI [1]: 57800
- gMFI [2]: 57400
- gMFI [3]: 61500
- gMFI [4]: 71.7
- gMFI [5]: 84700
- gMFI [6]: 18200
- gMFI [7]: 59700
- gMFI [8]: 58000
- gMFI [9]: 66300
- gMFI [10]: 81.5
- gMFI [11]: 93400
- gMFI [12]: 18900
